PMC11287377, “tRNA ^Arg binds in vitro TDP-43 RNA recognition motifs and ligand of Ate1 protein LIAT1” (microPublication Biology, 2024)

B1: human TDP-43 NTD (residues 1-85) (domain or fragment, UniProt Q13148 1-85, looked up)
chain: MSEYIRVTEDENDEPIEIPSEDDGTVLLSTVTAQFPGACGLRYRNPVSQCMRGVRLVEGILHAPDAGWGNLVYVVNYPKDNKRKM
notes: Tags removed with TEV protease; also called hTDP-43 NTD; source: E. coli BL21 KRX, purified (NiNTA, TEV digestion, SEC)
B2: human TDP-43 NLS-RRM1-RRM2 (residues 85-266) (domain or fragment, UniProt Q13148 85-266, looked up)
chain: MDETDASSAVKVKRAVQKTSDLIVLGLPWKTTEQDLKEYFSTFGEVLMVQVKKDLKTGHSKGFGFVRFTEYETQVKVMSQRHMIDGRWCDCKLPNSKQSQDEPLRSRKVFVGRCTEDMTEDELREFFSQYGDVMDVFIPKPFRAFAFVTFADDQIAQSLCGEDLIIKGISVHISNAEPKHNS
notes: Tags removed with TEV protease; also called hTDP-43 NLS-RRM1-RRM2; source: E. coli BL21 KRX, purified (NiNTA, TEV digestion, SEC)
B3: recombinant mouse LIAT1 (ligand of Ate1 protein), full length (natural protein, UniProt Q810M6 1-228, looked up)
chain: MAGRGGTGAAEYGEEGEEEEEEEAREGGAEGSPGSKLPPIVGTASELAKRKVKKKKKKKKTKGSGKGDADKHHSRGRKNQPLSSSFHDILNPHKDHGLRAEPRDKEENRQTLPYSYSINHPCFAEIEDTLSSQINESLRWDGILTDPEAEKERIRIYKLNRRKRYRLMALKCFHSDPCVEESVENLPYLSDKDCSPCSKQPSSKGDHAHSYFEASKLLHPELATTVAE
notes: LIAT1 (ligand of Ate1), Mus musculus, full length, theoretical molecular weight ~24 kDa; Tags removed with TEV protease; also called mLIAT1; source: E. coli BL21 KRX, purified (NiNTA, TEV digestion, SEC)
B4: human TDP-43 NTD-ΔNLS-RRM1-RRM2 (residues 1-85 and 101-266) (domain or fragment, UniProt Q13148 1-85, looked up)
chain: MSEYIRVTEDENDEPIEIPSEDDGTVLLSTVTAQFPGACGLRYRNPVSQCMRGVRLVEGILHAPDAGWGNLVYVVNYPKDNKRKMQKTSDLIVLGLPWKTTEQDLKEYFSTFGEVLMVQVKKDLKTGHSKGFGFVRFTEYETQVKVMSQRHMIDGRWCDCKLPNSKQSQDEPLRSRKVFVGRCTEDMTEDELREFFSQYGDVMDVFIPKPFRAFAFVTFADDQIAQSLCGEDLIIKGISVHISNAEPKHNS
notes: Internal deletion of the NLS linker (residues 86-100); no replacing linker is mentioned; Tags removed with TEV protease; also called hTDP-43 NTD-ΔNLS-RRM1-RRM2; source: E. coli BL21 KRX, purified (NiNTA, TEV digestion, SEC)

Target: the molecule itself
Assay: SEC; 500 uL of tagless purified protein on Superdex 75 10/30 in SEC buffer (150 mM KCl, 20 mM NaCl, 1 mM MgCl2, 5% glycerol, 50 mM HEPES pH 7.7), 0.5 mL/min; size from a calibration curve of standard proteins

Stoichiometry N, 2:
B1
B2
B3
B4
